Experimental data taken from patent US20220177587A1, “METHODS AND USES OF VARIANT CD80 FUSION PROTEINS AND RELATED CONSTRUCTS” (Alpine Immune Sciences, Inc., priority 2018, published 2022).
Numbering of substitutions follows the chain as printed. Names may count otherwise.

B1: L70Q/A91G/N144D (protein)
chain: VIHVTKEVKEVATLSCGHNVSVEELAQTRIYWQKEKKMVLTMMSGDMNIWPEYKNRTIFDITNNLSIVIQALRPSDEGTYECVVLKYEKDGFKREHLAEVTLSVKADFPTPSISDFEIPTSNIRRIICSTSGGFPEPHLSWLEDGEELNAINTTVSQDPETELYAVSSKLDFNMTTNHSFMCLIKYGHLRVNQTFNWNTTKQEHFPDN
modifications: CD80 v122 ECD
B2: V4M/L70Q/A91G/I118V/T120S/T130A/K169E (protein)
chain: B1 chain with V4M, I118V, T120S, T130A, D144N, K169E
modifications: CD80 v124 ECD
B3: L70Q/E81A/A91G/I118V/T120S/I127T/T130A (protein)
chain: B1 chain with E81A, I118V, T120S, I127T, T130A, D144N
modifications: CD80 v131 ECD
B4: V20L/L70Q/A91S/I118V/T120S/T130A (protein)
chain: B1 chain with V20L, I118V, T120S, T130A, D144N
modifications: CD80 v127 ECD
B5: L70Q/Y87N/A91G/T130A (protein)
chain: B1 chain with Y87N, T130A, D144N
modifications: CD80 v12 ECD
B6: S44P/L70Q/A91G/T130A (protein)
chain: B1 chain with S44P, T130A, D144N
B7: L70Q/A91G/E117G/I118V/T120S/T130A (protein)
chain: B1 chain with E117G, I118V, T120S, T130A, D144N
modifications: CD80 v128 ECD
B8: A91G/T120S/I118V/T130A (protein)
chain: B1 chain with Q70L, I118V, T120S, T130A, D144N
B9: L70Q/A91G/I118V/T120S/T130A/K169E (protein)
chain: B1 chain with I118V, T120S, T130A, D144N, K169E
modifications: CD80 v125 ECD
B10: L70Q/A91G/T130A (protein)
chain: B1 chain with T130A, D144N
modifications: CD80 v2 ECD
B11: L70Q/A91G/I118A/T120S/T130A/K169E (protein)
chain: B1 chain with I118A, T120S, T130A, D144N, K169E
modifications: CD80 v123 ECD
B12: L70R/A91G/I118V/T120S/T130A/T199S (protein)
chain: B1 chain with Q70R, I118V, T120S, T130A, D144N, T199S
modifications: CD80 v130 ECD
B13: E35D/M47I: variant CD80 IgV-Fc, IgV SEQ ID NO:177 (protein)
chain: VIHVTKEVKEVATLSCGHNVSVEELAQTRIYWQKDKKMVLTMMSGDINIWPEYKNRTIFDITNNLSIVILALRPSDEGTYECVVLKYEKDAFKREHLAEVTLSVKAD
B14: H18Y/A71D/L72P/E88V: variant CD80 IgV-Fc, IgV SEQ ID NO:214 (protein)
chain: B13 chain with H18Y, D35E, I47M, A71D, L72P, E88V
B15: V20I/A71D: variant CD80 IgV-Fc, IgV SEQ ID NO:215 (protein)
chain: B13 chain with V20I, D35E, I47M, A71D
B16: Y31H/E35D/T41S/V68L/K93R/R94W: variant CD80 IgV-Fc, IgV SEQ ID NO:223 (protein)
chain: B13 chain with Y31H, T41S, I47M, V68L, K93R, R94W
B17: V22L/E35D/M43L/A71G/D76H: variant CD80 IgV-Fc, IgV SEQ ID NO:218 (protein)
chain: B13 chain with V22L, M43L, I47M, A71G, D76H
B18: L70Q/A71D: variant CD80 IgV-Fc, IgV SEQ ID NO:220 (protein)
chain: B13 chain with D35E, I47M, L70Q, A71D
B19: A12T/E24D/E35D/D46V/I61V/L72P/E95V: variant CD80 IgV-Fc, IgV SEQ ID NO:217 (protein)
chain: B13 chain with A12T, E24D, D46V, I47M, I61V, L72P, E95V
B20: T41S/T57I/L70R: variant CD80 IgV-Fc, IgV SEQ ID NO:213 (protein)
chain: B13 chain with D35E, T41S, I47M, T57I, L70R
B21: D46E/A71D: variant CD80 IgV-Fc, IgV SEQ ID NO:222 (protein)
chain: B13 chain with D35E, D46E, I47M, A71D
B22: I30T/L70R: variant CD80 IgV-Fc, IgV SEQ ID NO:154 (protein)
chain: B13 chain with I30T, D35E, I47M, L70R

tested on: allogeneic CD4+ T cells; experiment: Mixed Lymphocyte Reaction (MLR), IFN-gamma; type: cell-based, human; settings: Table E32; variant ECD-Fc in MLR assay; culture supernatant
Description: Soluble rCD80.Fc bioactivity was tested in a human Mixed Lymphocyte Reaction (MLR). Human primary dendritic cells (DC) were generated by culturing monocytes isolated from PBMC (BenTech Bio, USA) in vitro for 7 days with 500U/ml rIL-4 (R&D Systems, USA) and 250 U/ml rGM-CSF (R&D Systems, USA) in Ex-Vivo 15 media (Lonza, Switzerland). 10,000 matured DC and 100,000 purified allogeneic CD4+ T cells (BenTech Bio, USA) were co-cultured with variant CD80 Fc fusion proteins and controls in 96 well round bottom plates in 200 μl final volume of Ex-Vivo 15 media. On day 5, IFN-gamma secretion in culture supernatants was analyzed using the Human IFN-gamma Duoset ELISA kit (R&D Systems, USA). Optical density was measured by VMax ELISA Microplate Reader (Molecular Devices, USA) and quantitated against titrated rIFN-gamma standard included in the IFN-gamma Duo-set kit (R&D Systems, USA).

Molecule | MLR IFN-gamma levels [pg/mL]
B1 | 716
B2 | 991
B3 | 772
B4 | 710
B5 | 769
B6 | 854
B7 | 736
B8 | 714
B9 | 741
B10 | 752
B11 | 741
B12 | 702

tested on: human pan T cells; experiment: Anti-CD3 coimmobilization assay, IFN-gamma; type: cell-based; settings: Table E32; variant ECD-Fc coimmobilized with anti-CD3; culture supernatant
Procedure, shortened: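 IFN-gamma in 3-day culture supernatants, quantified by ELISA, reflects costimulation. Human pan T cells or BC3 clone (100,000/well, Ex-Vivo 15) were placed on wells pre-adsorbed overnight with rCD80.Fc variants (1–80 nM) together with anti-CD3 OKT3 (1 nM or 4 nM), unbound protein removed.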

Molecule | Coimmobilization with anti CD3 IFN-gamma [pg/mL]
B1 | 93
B2 | 139
B3 | 98
B4 | 195
B5 | 136
B6 | 142
B7 | 98
B8 | 276
B9 | 104
B10 | 99
B11 | 86
B12 | 105

target: T1, CD28 (Homo sapiens, UniProt P10747); experiment: Jurkat/IL2 reporter assay: blockade of CD28 costimulation (plate-bound anti-CD3/CD86-Fc); type: cell-based; parameters: host or cells: Jurkat cells expressing an IL-2-luciferase reporter; settings: Table E5; protein diluted to 40 nM before mixing with cells; 5 hours
Description: The day before the assay, the assay plate was prepared. […] The plate was incubated overnight at 4° C. to allow the antibody and CD86-Fc protein to adhere to the surface of the plate. The next day, the wells of the assay plate were washed twice with 150 μL PBS prior to the assay.
Jurkat effector cells expressing IL-2-luciferase reporter were counted and resuspended in assay buffer to a concentration of 2×10^6 cells/mL. 60 μL of the Jurkat cell suspension were then added to the wells containing the CD80-Fc fusion molecules or controls. The cells and CD80 proteins were incubated at room temperature for 15 minutes and then 100 μL of the cell/CD80 protein mixture were transferred/well of the prepared anti-CD3/CD86-Fc assay plate.
The assay plate was briefly spun down (10 seconds at 1200 RPM) and incubated at 37° C. for 5 hours. After the 5 hour incubation, the plate was removed and equilibrated to room temperature for 15 minutes. 100 μL of Bio-Glo (Promega) were added/well of the assay plate, which was then placed on an orbital shaker for 10 minutes. Luminescence was measured with a 1 second per well integration time using a BioTek Cytation 3 luminometer.

Molecule | Average Relative Luminescence Units
B13 | 1444 Relative Luminescence Units
B14 | 1354 Relative Luminescence Units
B15 | 2165 Relative Luminescence Units
B16 | 3678 Relative Luminescence Units
B17 | 2004 Relative Luminescence Units
B18 | 1036 Relative Luminescence Units
B19 | 2408 Relative Luminescence Units
B20 | 3641 Relative Luminescence Units
B21 | 490 Relative Luminescence Units
B22 | 3236 Relative Luminescence Units

target: T1, CD28; experiment: Jurkat/IL2 + CHO/OKT3 +/- PD-L1 reporter assay: PD-L1-dependent CD28 costimulation; type: cell-based; parameters: host or cells: Jurkat cells expressing an IL-2-luciferase reporter; settings: CHO/OKT3/PD-L1 aAPC; 0.6 nM; luciferase signal
Procedure, shortened: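 Readout is relative luminescence from lysed cocultures: test protein given 15 min at room temperature to Jurkat cells before adding CHO artificial APCs displaying OKT3 alone or OKT3 plus PD-L1, then 5 h at 37 °C, 5% CO2.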

Molecule | PD-L1-Dependent CD28 Costimulation, +PD-L1, 0.6 nM
B13 | 1047

same assay, conditions: CHO/OKT3/PD-L1 aAPC; 50 nM; luciferase signal

Molecule | PD-L1-Dependent CD28 Costimulation, +PD-L1, 50 nM
B13 | 3778

same assay, conditions: CHO/OKT3 aAPC, no PD-L1; 50 nM; luciferase signal

Molecule | PD-L1-Dependent CD28 Costimulation, No PD-L1, 50 nM
B13 | 894

same assay, conditions: CHO/OKT3 aAPC, no PD-L1; […]; luciferase signal

Molecule | PD-L1-Dependent CD28 Costimulation, No PD-L1, […]
B13 | 637
